# US20090111753A1, “Nogo-A Polypeptide Fragments, Variant Nogo Receptor-1 Polypeptides, and Uses Thereof” (Yale University, priority 2004, published 2009)
# Where a chain is given by its changes, count along the chain named. Names may count otherwise.
# B1: 133, 136: human NgR1 mutant, listed residues mutated to alanine (protein)
# chain: CPGACVCYNEPKVTTSCPQQGLQAVPVGIPAASQRIFLHGNRISHVPAASFRACRNLTILWLHSNVLARIDAAAFTGLALLEQLDLSDNAQLRSVDPATFHGLGRLATLALDRCGLQELGPGLFRGLAALQYLYLQDNALQALPDDTFRDLGNLTHLFLHGNRISSVPERAFRGLHSLDRLLLHQNRVAHVHPHAFRDLGRLMTLYLFANNLSALPTEALAPLRALQYLRLNDNPWVCDCRARPLWAWLQKFRGSSSEVPCSLPQRLAGRDLKRLAANDLQGCAVATGPYHPIWTGRATDEEPLGLPKCCQPDAADKASVLEPGRPASAGNALKGRVPPGDSPPGNGSGPRHINDSPFGTLPGSAEPPLTAVRPEGSEPPGFPTSGPRRRPGCSRKNRTRSHCRLGQAGSGGGGTGDSEGSGALPSLTCSLTPLGLALVLWTVLGPC
# B2: 277, 279: human NgR1 mutant, listed residues mutated to alanine (protein)
# chain: B1 chain with A107H, A110H, K251A, R253A
# B3: 114, 117: human NgR1 mutant, listed residues mutated to alanine (protein)
# chain: B1 chain with D88A, Q91A, A107H, A110H
# B4: 63, 65: human NgR1 mutant, listed residues mutated to alanine (protein)
# chain: B1 chain with F37A, H39A, A107H, A110H
# B5: 267, 269: human NgR1 mutant, listed residues mutated to alanine (protein)
# chain: B1 chain with A107H, A110H, R241A, R243A
# B6: 36, 38: human NgR1 mutant, listed residues mutated to alanine (protein)
# chain: B1 chain with E10A, K12A, A107H, A110H
# B7: 182, 186: human NgR1 mutant, listed residues mutated to alanine (protein)
# chain: B1 chain with A107H, A110H, H156A, H160A
# B8: 143, 144: human NgR1 mutant, listed residues mutated to alanine (protein)
# chain: B1 chain with A107H, A110H, Q117A, E118A
# B9: 171, 172, 175, 176, 196, 199: human NgR1 mutant, listed residues mutated to alanine (protein)
# chain: B1 chain with A107H, A110H, D145A, D146A, R149A, D150A, R170A, R173A
# B10: 202, 205, 250: human NgR1 mutant, listed residues mutated to alanine (protein)
# chain: B1 chain with A107H, A110H, H176A, D179A, R224A
# B11: 196, 199: human NgR1 mutant, listed residues mutated to alanine (protein)
# chain: B1 chain with A107H, A110H, R170A, R173A
# B12: 296, 297, 300: human NgR1 mutant, listed residues mutated to alanine (protein)
# chain: B1 chain with A107H, A110H, R270A, D271A, R274A
# B13: 202, 205: human NgR1 mutant, listed residues mutated to alanine (protein)
# chain: B1 chain with A107H, A110H, H176A, D179A
# B14: 171, 172, 175, 176: human NgR1 mutant, listed residues mutated to alanine (protein)
# chain: B1 chain with A107H, A110H, D145A, D146A, R149A, D150A
# B15: 189, 191, 237: human NgR1 mutant, listed residues mutated to alanine (protein)
# chain: B1 chain with A107H, A110H, R163A, S165A, N211A
# B16: 232, 234: human NgR1 mutant, listed residues mutated to alanine (protein)
# chain: B1 chain with A107H, A110H, Y206A, F208A
# B17: 189, 191: human NgR1 mutant, listed residues mutated to alanine (protein)
# chain: B1 chain with A107H, A110H, R163A, S165A
# B18: 82, 179: human NgR1 mutant, listed residues mutated to alanine (protein)
# chain: B1 chain with N56A, A107H, A110H, N153A
# B19: 127, 151: human NgR1 mutant, listed residues mutated to alanine (protein)
# chain: B1 chain with H101A, A107H, A110H, R125A
# B20: 158, 160: human NgR1 mutant, listed residues mutated to alanine (protein)
# chain: B1 chain with A107H, A110H, Y132A, Y134A
# B21: 292, 296, 297, 300: human NgR1 mutant, listed residues mutated to alanine (protein)
# chain: B1 chain with A107H, A110H, R266A, R270A, D271A, R274A
# B22: 189, 191, 284: human NgR1 mutant, listed residues mutated to alanine (protein)
# chain: B1 chain with A107H, A110H, R163A, S165A, E258A
# B23: D259N: human NgR1 mutant, asparagine substitution to mimic a human polymorphism (protein)
# chain: B1 chain with A107H, A110H, D233N
# B24: 127, 176: human NgR1 mutant, listed residues mutated to alanine (protein)
# chain: B1 chain with H101A, A107H, A110H, D150A
# B25: 202, 205, 227: human NgR1 mutant, listed residues mutated to alanine (protein)
# chain: B1 chain with A107H, A110H, H176A, D179A, R201A
# Tested on: NgR ligands
# Assay: Binding of alanine substituted NgR mutants to NgR ligands, summary categories
# Settings: AP-Nogo66, AP-B4C, AP-B4C66, AP-Lingo-1, AP-OMgp and AP-MAG; compared to wild type NgR
# Source text: To better define how multiple ligands bind to the NgR protein, we examined a series of Ala-substituted NgR for ligand binding activity. NgR mutagenesis was done using the Quick Change Multisite Directed Mutagenesis Kit (Stratagene catalog #200514). Human NgR1 was used as a template. Ala substitutions were generated for each of the charged residues predicted to be solvent accessible at the surface of the ligand binding domain of NgR (Barton, W. A., et al., Embo J. 22:3291-3302 (2003); He, X. L., et al., Neuron 38:177-185 (2003)). We generated mutants in which 1-8 surface residues localized within 5 A of one another were Ala-substituted. Because of the coiling nature of the LRR structure, as residues juxtaposed on the protein surface are commonly separated by approximately 25 residues in the primary structure. In addition to mutations in specific charged surface patches, other mutations were targeted to glycosylation sites and to regions predicted to be involved in ligand binding based on the NgR structure (Barton, W. A., et al., Embo J. 22:3291-3302 (2003); He, X. L., et al., Neuron 38:177-185 (2003)). In addition, a variant corresponding to a human polymorphism was examined (D259N). None of the mutations altered the Leu residues that define the LRR structure itself or the Cys residues critical in the amino and carboxyl terminal capping domains. The vast majority of such Ala surface substitution mutants were expressed as immunoreactive polypeptides with a molecular weight and an expression level indistinguishable from wild type NgR (FIG. 4C and data not shown).
# This collection of 74 individual NgR mutants was interrogated for AP-Nogo-66, AP-Amino-Nogo-B4C, AP-MAG, AP-OMgp, and AP-Lingo-1 binding. AP-Nogo66, AP-MAG, AP-OMGP and AP-Lingo-1 constructs are described elsewhere (Fournier, A. E., et al., Nature 409:341-346 (2001); Liu, B. P., et al., Science 297:1190-1193 (2002); Mi, S., et al., Nat. Neurosci. 7:221-228 (2004); Wang, K. C., et al., Nature 417:941-944 (2002b)). The properties of the NgR mutants fell into one of three major categories (Table II and FIG. 5). A number of Ala substituted NgR polypeptides bound all of the ligands at wild type levels. […] In addition, a significant extent of the concave surface is dispensable for ligand binding.
# Alanine substituted NgR mutants were tested for their binding to AP-Nogo66, AP-B4C, AP-B4C66, AP-Lingo-1, AP-OMgp and AP-MAG and they fall into three categories: (1) Mutants that lose binding to all NgR ligands. (2) Mutants that still maintain binding to all NgR ligands. […] The D259N mutant is an asparagine substitution to mimic a human polymorphism.
row,ligand binding category of NgR mutant (Table II),Molecule
1,No binding,B1
2,Binding to all ligands,B2
3,Binding to all ligands,B3
4,Binding to all ligands,B4
5,Binding to all ligands,B5
6,Binding to all ligands,B6
7,No binding,B7
8,Binding to all ligands,B8
9,Binding to all ligands,B9
10,Binding to all ligands,B10
11,Binding to all ligands,B11
12,Binding to all ligands,B12
13,Binding to all ligands,B13
14,Binding to all ligands,B14
15,Binding to all ligands,B15
16,No binding,B16
17,Binding to all ligands,B17
18,No binding,B18
19,Binding to all ligands,B19
20,No binding,B20
21,Binding to all ligands,B21
22,Binding to all ligands,B22
23,Binding to all ligands,B23
24,Binding to all ligands,B24
25,Binding to all ligands,B25
